Measured values taken from US20220332804A1 (CSL INNOVATION, published 2022).
Positions count from the first letter of the chain named.

Assays:
Assay in all cases: SPR, antibody captured, C2 as analyte;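 note: biacore SPR at 37 °C, anti-C2 mAbs captured via goat anti-human IgG on CM5 chips, double-referenced sensorgrams fit to a 1:1 kinetic or steady-state model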
[1] = target: T1, human C2 N380A (human, UniProt P06681 21-752)
T1 sequence: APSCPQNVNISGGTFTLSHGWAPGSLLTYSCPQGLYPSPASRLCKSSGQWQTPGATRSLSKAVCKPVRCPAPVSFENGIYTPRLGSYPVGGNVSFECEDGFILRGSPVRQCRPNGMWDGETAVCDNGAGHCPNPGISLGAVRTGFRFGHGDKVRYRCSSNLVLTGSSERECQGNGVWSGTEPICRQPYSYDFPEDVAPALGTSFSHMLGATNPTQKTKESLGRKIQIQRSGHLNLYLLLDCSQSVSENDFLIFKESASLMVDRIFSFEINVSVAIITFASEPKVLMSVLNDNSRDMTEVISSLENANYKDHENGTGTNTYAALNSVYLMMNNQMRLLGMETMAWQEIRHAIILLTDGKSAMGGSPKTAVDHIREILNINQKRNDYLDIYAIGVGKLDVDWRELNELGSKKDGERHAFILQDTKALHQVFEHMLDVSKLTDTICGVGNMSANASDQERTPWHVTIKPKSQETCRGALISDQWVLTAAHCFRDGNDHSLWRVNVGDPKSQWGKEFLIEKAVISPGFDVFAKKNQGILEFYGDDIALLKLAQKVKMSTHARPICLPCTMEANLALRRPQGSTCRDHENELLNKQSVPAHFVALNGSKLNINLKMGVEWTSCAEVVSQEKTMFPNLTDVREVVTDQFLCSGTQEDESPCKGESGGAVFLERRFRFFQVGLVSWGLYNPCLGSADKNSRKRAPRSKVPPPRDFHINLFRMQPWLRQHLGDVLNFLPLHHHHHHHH
Procedure: (§1) Surface plasmon resonance (SPR, Biacore) was used for all binding affinity analyses. In brief, goat anti-human IgG was directly immobilised onto the carboxymethyl dextran surface of CM5 sensorchips to approximately 12,000 RU using standard NHS/EDC chemistry at pH 5. The immobilised antibody surface was pre-conditioned with ten injections of polyclonal human IgG (Privigen 60 s) prepared at 1 μg/mL. Ligands (anti-C2 mAbs) were captured at the beginning of each cycle as described below. An adjacent spot or flow cell in which only Polyclonal IgG was capture was used as a reference surface. The goat anti-human IgG Fc antibody surface was regenerate in 100 mM H3PO4, injected for 45 seconds at the end of each cycle. Experiments were performed at 37° C. and the flow rate of each experiment was kept constant at 30 μL/min.
(§2) Sensogram data was double-referenced against a reference anti-IgG surface (i.e. minus anti-C2 mAb) and blank buffer injections obtained within each experiment. The binding data was fit to 1:1 (kinetic or steady-state) model using local Rmax and null refraction index (RI=0) when appropriate. Buffers and solutions were filtered (0.22 μm) prior to use.

[2] = target: T2, human C2 E476A (human, UniProt P06681 21-752)
T2 sequence: T1 sequence with A360N, E456A
Procedure: as §1, §2

[3] = target: T3, human C2 L706A (human, UniProt P06681 21-752)
T3 sequence: T1 sequence with A360N, L686A
Procedure: as §1, §2

[4] = target: T4, human C2 H451A (human, UniProt P06681 21-752)
T4 sequence: T1 sequence with A360N, H431A
Procedure: as §1, §2

B1: RF16-226 (antibody, human IgG4 S228P, lambda)
heavy: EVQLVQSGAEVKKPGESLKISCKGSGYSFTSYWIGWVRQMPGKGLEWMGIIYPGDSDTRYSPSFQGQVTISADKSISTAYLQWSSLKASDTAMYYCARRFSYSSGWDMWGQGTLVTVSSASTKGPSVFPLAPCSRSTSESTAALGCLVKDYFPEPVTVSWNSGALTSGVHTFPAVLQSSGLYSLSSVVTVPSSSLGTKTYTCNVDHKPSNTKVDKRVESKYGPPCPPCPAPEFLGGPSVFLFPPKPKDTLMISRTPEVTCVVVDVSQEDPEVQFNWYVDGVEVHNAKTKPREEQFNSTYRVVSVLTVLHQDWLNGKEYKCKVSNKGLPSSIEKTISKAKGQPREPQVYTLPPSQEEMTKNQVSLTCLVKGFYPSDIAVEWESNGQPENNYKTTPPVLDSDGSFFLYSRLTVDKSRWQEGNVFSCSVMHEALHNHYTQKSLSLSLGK
light: SYELTQPPSVSVSPGQTARITCSGDALTSKYVAWYQQKSGLAPLLVIYEDTRRPSGIPAKFSGSSSGSVATLTISGAHGDDEADYYCYSTDASGHQRVFGGGTKLTVLSQPKAAPSVTLFPPSSEELQANKATLVCLISDFYPGAVTVAWKADGSPVKAGVETTKPSKQSNNKYAASSYLSLTPEQWKSHRSYSCQVTHEGSTVEKTVAPTECS
notes: pH-dependent anti-C2 antibody from a phage display library; also called WT
In the case of B1, the Kd [1] is reported as 15.1 nM, the Kd [2] is reported as 19.6 nM and the Kd [3] is reported as 229 nM. It also gave a Kd [4] of 105 nM.
